Experiment in all cases: cell-based or functional assay
The target of assay [1] is SARS-COV-2 spike of variant B.1.526 (Iota) on pseudotyped virus (SARS-COV-2) (UniProt P0DTC2).
In assay [2] the target is SARS-COV-2 spike of variant B.1.617.2 (Delta) on pseudotyped virus (SARS-COV-2) (UniProt P0DTC2).
Assay [3] addresses SARS-COV-2 spike of variant B.1.1.7 (Alpha) on pseudotyped virus (SARS-COV-2) (UniProt P0DTC2).
Assay [4] addresses SARS-COV-2 spike of variant B.1.351 (Beta) on pseudotyped virus (SARS-COV-2) (UniProt P0DTC2).

Bounds are passed on as bounds.

DMAb 2130_FcTM (antibody): the fold reduction in ID50, pseudovirus neutralization in assay [1], in assay [2], in assay [3] and in assay [4] was less than 3 fold in each case.
In assay [4], DMAb REGN10987 (antibody) gave a fold change of pseudovirus neutralization against WA1/2020 of less than 3 fold.

Source of the values: patent US20240409619A1.
